Publication PMC13123425, “A mutant complement factor H (W1183R) enhances proteolytic cleavage of von Willebrand factor by ADAMTS-13 under shear” (Journal of thrombosis and haemostasis : JTH, 2025)

Target: purified human recombinant von Willebrand factor (multimeric) (human, UniProt P04275 764-2813)
Assay: cell-based or functional assay

cleavage product (~350 kD band) of multimeric VWF by recombinant ADAMTS-13 under vortexing-induced shear, with 0–2 μM W1183R-CFH: ~2 fold
B1: human recombinant W1183R complement factor H (natural protein, UniProt P08603 19-1231, looked up)
chain: EDCNELPPRRNTEILTGSWSDQTYPEGTQAIYKCRPGYRSLGNVIMVCRKGEWVALNPLRKCQKRPCGHPGDTPFGTFTLTGGNVFEYGVKAVYTCNEGYQLLGEINYRECDTDGWTNDIPICEVVKCLPVTAPENGKIVSSAMEPDREYHFGQAVRFVCNSGYKIEGDEEMHCSDDGFWSKEKPKCVEISCKSPDVINGSPISQKIIYKENERFQYKCNMGYEYSERGDAVCTESGWRPLPSCEEKSCDNPYIPNGDYSPLRIKHRTGDEITYQCRNGFYPATRGNTAKCTSTGWIPAPRCTLKPCDYPDIKHGGLYHENMRRPYFPVAVGKYYSYYCDEHFETPSGSYWDHIHCTQDGWSPAVPCLRKCYFPYLENGYNQNYGRKFVQGKSIDVACHPGYALPKAQTTVTCMENGWSPTPRCIRVKTCSKSSIDIENGFISESQYTYALKEKAKYQCKLGYVTADGETSGSITCGKDGWSAQPTCIKSCDIPVFMNARTKNDFTWFKLNDTLDYECHDGYESNTGSTTGSIVCGYNGWSDLPICYERECELPKIDVHLVPDRKKDQYKVGEVLKFSCKPGFTIVGPNSVQCYHFGLSPDLPICKEQVQSCGPPPELLNGNVKEKTKEEYGHSEVVEYYCNPRFLMKGPNKIQCVDGEWTTLPVCIVEESTCGDIPELEHGWAQLSSPPYYYGDSVEFNCSESFTMIGHRSITCIHGVWTQLPQCVAIDKLKKCKSSNLIILEEHLKNKKEFDHNSNIRYRCRGKEGWIHTVCINGRWDPEVNCSMAQIQLCPPPPQIPNSHNMTTTLNYRDGEKVSVLCQENYLIQEGEEITCKDGRWQSIPLCVEKIPCSQPPQIEHGTINSSRSSQESYAHGTKLSYTCEGGFRISEENETTCYMGKWSSPPQCEGLPCKSPPEISHGVVAHMSDSYQYGEEVTYKCFEGFGIDGPAIAKCLGEKWSHPPSCIKTDCLSLPSFENAIPMGEKKDVYKAGEQVTYTCATYYKMDGASNVTCINSRWTGRPTCRDTSCVNPPTVQNAYIVSRQMSKYPSGERVRYQCRSPYEMFGDEEVMCLNGNWTEPPQCKDSTGKCGPPPPIDNGDITSFPLSVYAPASSVEYQCQNLYQLEGNKRITCRNGQWSEPPKCLHPCVISREIMENYNIALRRTAKQKLYSRTGESVEFVCKRGYRLSSRSHTLRTTCWDGKLEYPTCAKR
